B1: XG014 monoclonal antibody (IgG) (antibody, V domains shown)
VH: EVQLVQSGAEVKKPGESLKISCKGSGYSFSNYWIGWVRHMPGKGLEWMGIIYPGDSDTRYSPSFQGQVTISVDTSISTAYLQWSSLKASDTAMYYCTRHQYGYNYGYFYYYIDVWGKGTTVTVSS
VL: QSVLTQPPSVSAAPGQKVTISCSGSSSNIGNNPVSWYRQVPGTAPKLLIYDNNKRPSGIPDRFSGSKSGASATLGITGLQTGDEADYYCGTWHTSLSSGVFGGGTKLTVL
B2: XG005 monoclonal antibody (IgG) (antibody, V domains shown)
VH: QVTLRESGPTLVKPKQTLTLTCTFSGFSLSTPGGGVGWIRQPPGKALEWLALIYWDDDKRYSPSLKSSLTITKDTSKNQVVLTMTNMDPVDTATYYCARLTAADTIFDCWGQGTLVTVSS
VL: QSALTQPASVSGSPGLSITISCTATSSDVGAYNYVSWYQQHPGQAPKLMIYDVSKRPSGVSNRFSGSKSANTASLTISGLQAEDEADYYCSSYTTTSVVFGGGTKLTVL

How the values were obtained:
[1] = target: T1, Avi-tagged SARS-CoV-2 RBD, biotinylated (Severe acute respiratory syndrome …, UniProt P0DTC2, biotin (BirA biotinylation of the Avi tag)); assay: BLI; settings: both partners purified
T1 construct: also called biotinylated RBD protein of SARS-CoV-2

[2] = target: recombinant S-ECD of SARS-CoV (Severe acute respiratory syndrome …, UniProt P59594); assay: cell-based or functional assay
[3] = target: recombinant SARS-CoV-2 RBD protein (wild type) (SARS-CoV-2, UniProt P0DTC2); assay: ELISA; settings: both partners purified

Binder	Kd [1] [pM]	IC50 of neutralisation of SARS-CoV pseudovirus in Huh-7 cells [2] [µg/mL]	binding result [3]
B1	< 1	0.016	
B2			binds

Source: paper PMC8458794 (Protein & Cell, 2021)
